Blank lines part the entries; values can stand above or below the molecule they belong to. Where no end group is shown, it is not given here.
Experiments:
BKB2 receptor [1] = target: T1, BKB2 receptor (Homo sapiens, UniProt P30411); assay: Intracellular calcium release in CHO-K1/B2/Gα15 cells (FLIPR Calcium 4); assay type: cell-based; design: expressed in transfected cells; settings: bradykinin positive control (10 uM in the method); mean+/−SD, n=2
T1 sequence (P30411 1-391): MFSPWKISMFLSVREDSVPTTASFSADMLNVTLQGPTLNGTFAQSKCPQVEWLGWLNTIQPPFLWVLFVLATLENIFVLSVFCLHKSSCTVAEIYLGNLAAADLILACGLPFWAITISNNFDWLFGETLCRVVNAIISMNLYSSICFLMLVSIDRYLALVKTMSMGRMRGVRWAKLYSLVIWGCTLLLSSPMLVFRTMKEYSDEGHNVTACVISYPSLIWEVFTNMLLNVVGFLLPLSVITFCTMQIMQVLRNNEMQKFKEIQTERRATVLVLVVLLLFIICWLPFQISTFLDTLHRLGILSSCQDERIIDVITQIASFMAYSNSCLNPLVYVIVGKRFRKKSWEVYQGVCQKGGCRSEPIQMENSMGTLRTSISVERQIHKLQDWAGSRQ
Method: A stable CHO cell line expressing the human BKB2 receptor (CHO-K1/B2/Gα15) was used for the screening. The antibody was diluted to five different concentrations, from 0.5 mg/ml, via three-fold dilution increments, and screened on duplicate cell samples.
Expression and functional activity of the human BKB2 receptor in the CHO-K1/B2/Gα15 cell line were validated by exposure to the positive control, bradykinin.
To perform the assay, CHO-K1/B2/Gα15 cells were seeded in wells of a 384-well black-wall, clear-bottom plate at a density of 20,000 cells per well in 20 μL of growth medium 20 hours prior to the day of experiment, and maintained at 37° C./5% CO2. 20 μL of dye-loading solution (FLIPR™ Calcium 4 assay kit, Molecular Devices, Sunnyvale, Calif.) was added into each well and the plate was placed into a 37° C. incubator for 60 minutes, followed by 15 minutes at room temperature. The total reading time was 120 sec. After a 20-second reading to establish the baseline, the antibody or agonist were added to selected wells and the fluorescence signal was captured for another 100 seconds (21 s to 120 s). Readings from wells containing cells stimulated with assay buffer (0.03% Na3N PBS) containing 1% DMSO were chosen as the background values for screening; readings from wells containing cells stimulated with the agonist bradykinin (at 10 uM) were chosen as the positive control.

[2] = cited from earlier work
BKB2 receptor [3] = target: T1, BKB2 receptor; settings: BKB2 receptor agonist; cited from earlier work
Hep G2 = assay: MTT Cell Proliferation Assay, Hep G2; assay type: cell-based, human; settings: 120 hours of exposure
Excerpt: (§1) This Example describes characterization of the cytotoxic activity of herein described anti-BKB2R monoclonal antibodies against a panel of cancer cell lines. BxPC-3 is a human adenocarcinoma cell line originally isolated from the pancreas (pancreatic cancer) (ATCC # CRL-1687; Tan et al., Cancer Invest. 4: 15-23, 1986. PubMed: 3754176). MV-4-11 is a human biphenotypic B myelomonocytic leukemia (mixed-lineage leukemia, MLL-AF4) cell line originally isolated from the peripheral blood (ATCC # CRL-959; Lange et al., Blood 70: 192-199, 1987. PubMed: 3496132). Hep G2 is a human hepatocellular carcinoma cell line isolated from the liver (liver cancer) (ATCC # HB-8065; Aden et al., Nature 282: 615-616, 1979. PubMed: 233137). RS4;11 is a human acute lymphoblastic leukemia (mixed-lineage leukemia, MLL-AF4) cell line isolated from the bone marrow (ATTC # CRL-1873) Stong et al., Blood 65: 21-31, 1985. PubMed: 3917311). HT-29 is a human colorectal adenocarcinoma (ATTC # HTB-38) cell line isolated from the colon (colon cancer). Fogh et al., J. Natl. Cancer Inst. 58: 209-214, 1977. PubMed: 833871). NUGC-4 is a human stomach carcinoma isolated from the stomach paragastiric lymph node (JCRB # JCRB0834; Akiyama et al., Jpn. J. Surg., 18: 438-446, 1988). […]
(§2) The anti-proliferative activity of test compounds against the indicated cell lines was evaluated in vitro using the ATCC's MTT Cell Proliferation Assay (Catalog No. 30-1010K). After the 120 hour incubation with drug (e.g., anti-BKB2R mAb or cisplatin), cell proliferation was measured by addition of MTT reagent to each well and incubation for an additional 4 hrs. […] Optical absorbance (570 nm) of the test wells was measured and then quantitated relative to control wells that received no drug. Results were expressed as percent inhibition versus compound concentration and graphed, as shown in FIGS. 19-25, for cell lines BxPC-3, MV-4;11, HepG2, RS-4;11, HT-29, NUGC-4, and PC-3, respectively.

BxPC-3 = assay: MTT Cell Proliferation Assay, BxPC-3; assay type: cell-based, human; settings: 120 hours of exposure
Excerpt: as §1, §2

HT-29 = assay: MTT Cell Proliferation Assay, HT-29; assay type: cell-based, human; settings: 120 hours of exposure
Excerpt: as §1, §2

MV-4-11 = assay: MTT Cell Proliferation Assay, MV-4-11; assay type: cell-based, human; settings: 120 hours of exposure
Excerpt: as §1, §2

NUGC-4 = assay: MTT Cell Proliferation Assay, NUGC-4; assay type: cell-based, human; settings: 120 hours of exposure
Excerpt: as §1, §2

PC-3 = assay: MTT Cell Proliferation Assay, PC-3; assay type: cell-based, human; settings: 120 hours of exposure
Excerpt: as §1, §2

RS-4;11 = assay: MTT Cell Proliferation Assay, RS-4;11; assay type: cell-based, human; settings: 120 hours of exposure
Excerpt: as §1, §2

[4] = target: human bradykinin B2 receptor (BKB2R) (human) (UniProt P30411); assay: cell-based or functional assay
[5] = target: T2, human BKB2R-derived epitope peptide (SEQ ID NO:73), PEG-biotin (human, also: PEG-biotin, site not given here); assay: BLI (Octet), peptide-PEG-biotin on streptavidin sensor, antibody 500 nM; antibody 500 nM (the 250 nM row r17 gives 4.41E-07 M)
T2 construct: also called immunogenic human BKB2R peptide fragment
T2 peptide: KEYSDEGHNVTAC
Method: (§3) For the Octet study, antibodies were analyzed by kinetic titration of the antibodies. Antibodies were prepared in kinetic buffer (0.001 M phosphate buffered saline (NaCl 0.0138 M; KCl-0.00027 M); pH 7.4, at 25° C., 0.1 mg/ml BSA, 0.002% Tween and 0.005% Sodium Azide) followed by 1:2 serial dilutions.
(§4) Sensor Prep: Streptavidin biosensors (FortéBio Inc, Menlo Park, Calif.) were coated by incubation in a solution containing a peptide ([…]-PEG-biotin) (Biosyn, Lewisville, Tex.) at 50 μg/ml (300 seconds/1000 rpm shaking). 96 well half-volume plates were used for testing. 90 μl of sample was plated per well. Sensors were allowed to equilibrate to baseline in kinetic buffer (60 seconds/1000 rpm). The sensors were then placed into the various antibody dilutions to allow binding (association) to the probe for 500 seconds/1000 rpm, and measurements were taken. The sensors were then moved into kinetic buffer without antibody for dissociation (500 seconds/1000 rpm), and measurements were taken. Octet system software calculated kinetic constants for on rate/off rate/affinity.
(§5) For test humanized monoclonal antibodies, the highest concentration used was 500 nM followed by 1:2 dilutions. Each concentration was tested twice. The HC and LC represented the mouse original 5F12G1 VH and VL sequences.

[6] = target: T2, human BKB2R-derived epitope peptide …; assay: BLI (Octet), peptide-PEG-biotin on streptavidin sensor, antibody 500 nM
Method: as §3, §4, §5

[7] = target: T2, human BKB2R-derived epitope peptide …; assay: BLI (Octet), peptide-PEG-biotin on streptavidin sensor, antibody 250 nM
Method: as §3, §4, §5

[8] = target: T2, human BKB2R-derived epitope peptide …; assay: BLI (Octet), peptide-PEG-biotin on streptavidin sensor, antibody 3333 nM; antibody 3333 nM row; the same constants are printed for all four ab 404 concentrations
[9] = target: T2, human BKB2R-derived epitope peptide …; assay: BLI (Octet), peptide-PEG-biotin on streptavidin sensor, antibody 3333 nM
[10] = target: T2, human BKB2R-derived epitope peptide …; assay: BLI (Octet), peptide-PEG-biotin on streptavidin sensor, antibody 1000 nM
[11] = target: T2, human BKB2R-derived epitope peptide …; assay: BLI (Octet), peptide-PEG-biotin on streptavidin sensor, antibody 833 nM
[12] = target: T2, human BKB2R-derived epitope peptide …; assay: BLI (Octet), peptide-PEG-biotin on streptavidin sensor, antibody 1667 nM

Molecule: RPPGFSPFR [bradykinin]
percentage of activation (BKB2 receptor [1]): 93.1+/−5.7%

Molecule: kallidin
short lived, in vivo [2]: ~30 s
Kd (BKB2 receptor [3]): ~0.89 nM

Molecule: N.N.[Cl][Pt][Cl] [Cisplatin, cisplatin]
EC 50 Values (ng/ml) Hep G2 (Hep G2): 239 ng/mL
EC50 (Hep G2; read-out: EC 50 Hep G2, value in brackets): 800 nM
EC 50 Values (ng/ml) BxPC-3 (BxPC-3): 204 ng/mL
EC50 (BxPC-3; read-out: EC 50 BxPC-3, value in brackets): 700 nM
EC 50 Values (ng/ml) HT-29 (HT-29): 698 ng/mL
EC50 (HT-29; read-out: EC 50 HT-29, value in brackets): 2300 nM
EC 50 Values (ng/ml) MV-4-11 (MV-4-11): 347 ng/mL
EC50 (MV-4-11; read-out: EC 50 MV-4-11, value in brackets): 1200 nM
EC 50 Values (ng/ml) NUGC-4 (NUGC-4): 1200 ng/mL
EC50 (NUGC-4; read-out: EC 50 NUGC-4, value in brackets): 4.1 µM
EC 50 Values (ng/ml) PC-3 (PC-3): 753 ng/mL
EC50 (PC-3; read-out: EC 50 PC-3, value in brackets): 2500 nM
EC 50 Values (ng/ml) RS-4;11 (RS-4;11): 344 ng/mL
EC50 (RS-4;11; read-out: EC 50 RS-4;11, value in brackets): 1100 nM

Molecule: bradykinin (from UniProt P01042 381-389) (peptide)
ED50 (intracellular calcium release, FLIPR, CHO-K1/B2/Gα15 cells) [4]: 0.95 nm/l
percentage of activation (intracellular calcium release, FLIPR, CHO-K1/B2/Gα15 cells) [4]: 93.1%

Kd [5]: 2330 nM
Max Response [6]: 0.216
koff [6]: 0.942 s⁻¹
kon [6]: 404000 M⁻¹ s⁻¹
Kd [7]: 441 nM
Max Response [7]: 0.286
koff [7]: 0.701 s⁻¹
kon [7]: 1.59e+06 M⁻¹ s⁻¹
B1: humanized anti-BKB2R antibody L1/H1 (antibody, human IgG2, kappa, V domains shown)
VH: EVQLVESGGGLVQPGGSLRLSCAASGFTFSDYWMSWVRQAPGKGLEWVAEIRLKSDNYATHYAESVKGRFTISRDNAKNSLYLQMNSLRAEDTAVYYCTRDYYAMEYWGQGTLVTVSS
VL: DIVMTQSPLSLPVTPGEPASISCRSSQTIVHSNGKTYLEWYLQKPGQSPQLLIYKVSNRFSGVPDRFSGSGSGTDFTLKISRVEAEDVGVYYCFQASHVPYTFGQGTKLEIKR
notes: also called H1/L1

Kd [8]: 462 nM
koff [9]: 0.00109 s⁻¹
kon [9]: 2350 M⁻¹ s⁻¹
Kd [10]: 462 nM
koff [10]: 0.00109 s⁻¹
kon [10]: 2350 M⁻¹ s⁻¹
Kd [11]: 462 nM
koff [11]: 0.00109 s⁻¹
kon [11]: 2350 M⁻¹ s⁻¹
Kd [12]: 462 nM
koff [12]: 0.00109 s⁻¹
kon [12]: 2350 M⁻¹ s⁻¹
B2: murine monoclonal anti-BKB2R antibody 5F12G1 (antibody, IgG2b, V domains shown)
VH: EVKLEESGGGLVQPGGSMKLSCVVSGFTFSDYWMSWVRHSPEMGLEWVAEIRLKSDNYATHYAESVKGRFTISRDDSKSRLYLQINSLRGEDTGIYYCTRDYYAMEYWGQGTSVTVSS
VL: DVVMTQTPLSLPVSLGDQASISCRSSQTIVHSNGKTYLEWYLQKPGQSPKLLIYKVSNRFSGVPDRFSGSGSGTEFTLKISRVETEDLGVYYCFQASHVPYTFGGGTKLEIK
notes: also called F512G1

From patent US20140017242A1, “ANTI-BRADYKININ B2 RECEPTOR (BKB2R) MONOCLONAL ANTIBODY” (Diamedica, Inc., priority 2010, published 2014)
